Test results as given in IntAct's records for PubMed 26823173.

B1: Coronin-1A (Mus musculus), O89053 (parent)
chain: MSRQVVRSSKFRHVFGQPAKADQCYEDVRVSQTTWDSGFCAVNPKFMALICEASGGGAFLVLPLGKTGRVDKNVPLVCGHTAPVLDIAWCPHNDNVIASGSEDCTVMVWEIPDGGLVLPLREPVITLEGHTKRVGIVAWHPTAQNVLLSAGCDNVILVWDVGTGAAVLTLGPDVHPDTIYSVDWSRDGALICTSCRDKRVRVIEPRKGTVVAEKDRPHEGTRPVHAVFVSEGKILTTGFSRMSERQVALWDTKHLEEPLSLQELDTSSGVLLPFFDPDTNIVYLCGKGDSSIRYFEITSEAPFLHYLSMFSSKESQRGMGYMPKRGLEVNKCEIARFYKLHERKCEPIAMTVPRKSDLFQEDLYPPTAGPDPALTAEEWLGGRDAGPLLISLKDGYVPPKSRELRVNRGLDSARRRATPEPSGTPSSDTVSRLEEDVRNLNAIVQKLQERLDRLEETVQAK

Variants of: B1
Settings: with gnas2_human GNAS

Variant | effect of a mutation on the interaction
T418A;T424A | disrupting interaction
T418A | decreasing interaction
T424A | decreasing interaction

Variants of: B1
Settings: with gnas2_human GNAS
Remark: another data set of the same source

Variant | effect of a mutation on the interaction
T418E;T424E | disrupting interaction
